T1: human DLL3 antigen (human, UniProt Q9NYJ7 27-492)
T1 chain: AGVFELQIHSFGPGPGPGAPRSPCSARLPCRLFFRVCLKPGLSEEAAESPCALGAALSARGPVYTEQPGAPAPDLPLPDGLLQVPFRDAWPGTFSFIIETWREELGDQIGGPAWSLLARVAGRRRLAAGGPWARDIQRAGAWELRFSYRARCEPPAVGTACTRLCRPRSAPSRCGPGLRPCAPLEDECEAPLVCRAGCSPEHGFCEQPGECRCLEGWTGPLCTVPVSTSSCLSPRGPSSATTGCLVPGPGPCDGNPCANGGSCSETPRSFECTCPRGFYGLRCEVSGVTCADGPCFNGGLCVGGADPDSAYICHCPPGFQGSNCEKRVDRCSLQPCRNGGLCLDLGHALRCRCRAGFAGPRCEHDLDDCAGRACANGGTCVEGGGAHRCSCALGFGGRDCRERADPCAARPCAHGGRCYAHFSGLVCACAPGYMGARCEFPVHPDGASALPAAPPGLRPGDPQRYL


Experiments:
[1] = target: T1, human DLL3 antigen; test: SPR
[2] = target: T1, human DLL3 antigen; test: Biacore SPR
[3] = target: T1, human DLL3 antigen; test: ForteBio
[4] = target: T1, human DLL3 antigen; test: ForteBio

Binder | Kd [1] [nM] | Kd [2] [nM] | further results
SC16.13 (antibody, V domains shown) VH: QVTLKESGPGILQPSQTLSLTCSFSGFSLSTSGMGVGWIRQPSGKGLEWLAHIWWDDVKRYNPALKSRLTISKDTSSSQVFLKIASVDTADTATYYCARIVSFDNDVVSAMDYWGQGTSVTVSS VL: QIVLTQSPALVSASPGEKVTMTCSASSSVSYMYWYQQKPRSSPKPWIYLTSNLASGVPARFSGSGSGTSYSLTISSMEAEDAATYYCQQWRSNPFTFGSGTKLEIK | 0.3 | 2 | –
SC16.65 (antibody, V domains shown) VH: QVTLKESGPGILQPSQTLSLTCSFSGFSLSTSGMGVGWIRQPSGKGLEWLALIWWDDVKRYNPALKSRLTISKDASSSQVFLKIASVDTADTATYYCARIASYDYDVVYAMDYWGQGTSVSVSS VL: QIVLTQSPALMSASPGEKVTMTCSVTSSVSYMYWYQQKPRSSPKPWIYLTSNLASGVPARFSGSGSGTSYSLTISSVEAEDAATYYCQQWRNNPFTFGSGTKVEIK | – | 0.9 | –
SC16.25 (antibody, V domains shown) VH: QVTLKESGPGILQPSQTLSLTCSFSGFSLSTSGMGVGWIRQPSGEGLEWLTDIWWDDNKYYNPSLKSRLTISKDTSSNQVFLNITSVDTADTATYYCARRVNYYYDPYYAMDYWGQGTSVTVSS VL: QIVLTQSPAIMSASPGEKVTMTCSASSSVSYMHWYQQKSGTSPKRWIYDSSKLASGVPARFSGSGSGTSYSLTISSMEAEDAATYYCQQWSSNPLTFGAGTKLELK | < 0.2 | 0.2 | –
SC16.8 (antibody, V domains shown) VH: QAQLQQSGAELVRPGTSVKVSCKASGYAFTNYLIEWVKQRPGQGLEWIGVINPGTGGTNYNENFKGKATLTADKSSSTAYMQLSSLTSDDSAVYFCARSPYDYHEGAMDYWGQGTSVTVSS VL: EIQMTQSPSSMSASLGDRITITCQATQDIVKNLNWYQQKPGKPPSFLIYYAIELAEGVPSRFSGSGSGSDYSLTISNLESEDFADYYCLQFYEFPFTFGAGTKLELK | – | – | Kd [3]: 0.5 nM
SC16.15 (antibody, V domains shown) VH: QVQLQQSGAELAKPGASVKMSCKASGYTFTRYWIHWIKQRPGQGLEWIGYINPTTVYTEFNQNFKDKATLTADKSSTTASMQLSSLTSEDSAVYYCARGGSNFFDYWGQGTTLTVSS VL: DIQMTQSPASLAASVGETVAITCRASENIYYNLAWYQQKQGKSPQLLIYTANSLEDGVPSRFSGSGSGTQYSLKINSMQPEDSATYFCKQAYDVPPTFGGGTKLEIK | – | 0.5 | –
SC16.10 (antibody, V domains shown) VH: QVTLKESGPGILQSSQTLSLTCSFSGFSLSTSGMGVGWIRQPSGKGLEWLAHIWWDDVKRYNPVLKSRLTISKDTSSSQVFLKIASVDTADTATYYCARLVDDLYYFDYWGQGTTLTVSS VL: QIVLTQSPAIMSASLGERVTMTCTASSSVSSSYLHWYQQKPGSSPKLWIYSTSNLASGVPTRFSGSGSGTSYSLTISSMEAEDAATYYCHQYHRSPFTFGSGTKLEIK | – | – | Kd [3]: 4 nM
SC16.34 (antibody, V domains shown) VH: QIQLVQSGPELKRPGETVKISCKASGYTFTNYGMNWVKQAPGKGLKWMGWINTYTGDPTYADDFKGRFAFSLETSASTAYLQINNLKNEDTATYFCARIGGNSPSDYWGQGTSLTVSS VL: SIVMTQTPKFLLVSAGDRVTITCKASQSVSNDVAWYQQKPGQSPKLLIYYASNRYSGVPDRFTGSGYGTDFTFTISTVQAEDLAVYFCQQDYSSPWTFGGGTKLEIK | 0.6 | 0.2 | –
SC16.56 (antibody, V domains shown) VH: QIQLVQSGPELKKPGETVKISCKASGYTFTNYGMNWVKQAPGKGLKWMAWINTYTGEPTYADDFKGRFAFSLETSASTASLQIINLKNEDTATYFCARIGDSSPSDYWGQGTTLTVSS VL: SIVMTQTPKFLLVSAGDRVTITCKASQSVSNDVVWYQQKPGQSPKLLIYYASNRYTGVPDRFAGSGYGTDFSFTISTVQAEDLAVYFCQQDYTSPWTFGGGTKLEIR | 0.5 | 1 | –
SC16.4 (antibody, V domains shown) VH: QIQLVQSGPELKKPGETVKISCKASGYTFTDYSMHWVKQAPGKGLKWMGWINTETGEPGYADDFKGRFAFSLETSASTAYLQINNLKNEDTATYFCARYDGYAMDYWGQGTSVTVSS VL: DIQMTQTTSSLSASLGDRVTISCRASQDISNYLNWYQQKPDGTVKLLIYYTSRLHSGVPSRFSGSGSGTDYSLTISNLELEDIATYFCQQGDMLPWTFGGGTKLEIK | – | – | Kd [3]: 0.5 nM
SC16.39 (antibody, V domains shown) VH: EVKLEESGGGLVQFGGSMKLSCAASGFTFSDAWMDWVRQSPEKGLEWVAEIRNKANNHATYYPESVKGRFTISRDDSKSRVYLQMNNLRAEDTGIYYCTGYSSFAYWGQGTLVTVSA VL: DIQMTQTTSSLSASLGDRVTISCRASQDVINYLNWYQQKPDGTVKLLIYYTSRLHSGVPSRFSGSGSRTDYSLTISNLEPEDIATYYCQQYSERPYTFGGGTKLEIK | – | – | Kd [4]: 1 nM
SC16.67 (antibody, V domains shown) VH: EVQLVETGGGLVQPKGSLKLSCAVSAFTFTTYAMNWVRQAPGKGLEWVARIRNKSNNYATYYADSVKDRFTISRDDSQSMLYLQMNNLKIEDTAMYYCVFYYDYVYWGQGTLVTVSA VL: QAVVTQESALTTSPGETVTLTCRSSTGAVTTSNYANWIQEKPDHLFTGLIGGTNNRAPGVPARFSGSLIGDKAALTITGAQTEDEAIYFCGLWYSNHLVFGGGTKLTVL | – | – | Kd [3]: 0.5 nM

Now from value to binder, other results behind:

Kd [1] [nM] | Kd [2] [nM] | Binder | further results
0.5 | – | hSC16.13 (antibody, V domains shown) VH: QITLKESGPTLVKPTQTLTLTCTFSGFSLSTSGMGVGWIRQPPGKALEWLAHIWWDDVKRYSPSLKSRLTITKDTSKNQVVLTMTNMDPVDTATYYCARIVSFDNDVVSAMDYWGQGTLVTVSS VL: DIQMTQSPSSLSASVGDRVTITCSASSSVSYMYWYQQKPGKAPKLLIYLTSNLASGVPSRFSGSGSGTDFTLTISSLQPEDFATYYCQQWRSNPFTFGQGTKLEIKR | –
< 0.2 | – | hSC16.25 (antibody, V domains shown) VL: EIVLTQSPDFQSVTPKEKVTITCSASSSVSYMHWYQQKPDQSPKLLIKDSSKLASGVPSRFSGSGSGTDFTLTINSLEAEDAATYYCQQWSSNPLTFGQGTKLEIK V domain: QITLKESGPTLVKPTQTLTLTCTFSGFSLSTSGMGVGWIRQPPGKALEWLTDIWWDDNKYYNPSLKSRLTITKDTSKNQVVLTMTNMDPVDTATYYCARRVNYYYDPYYAMDYWGQGTTLVTVS | –
0.2 | – | hSC16.15 (antibody, V domains shown) VH: QVQLVQSGAEVKKPGASVKVSCKASGYTFTRYWIHWIRQAPGQGLEWMGYINPTTVYTEFNQNFKDRVTMTRDTSTSTVYMELSSLRSEDTAVYYCARGGSNFFDYWGQGTTVTVSS VL: AIQLTQSPSSLSASVGDRVTITCRASENIYYNLAWYQQKPGKAPKLLIYTANSLEDGVPSRFSGSGSGTDFTLTISSLQPEDFATYFCKQAYDVPPTFGGGTKLEIK | –
0.9 | – | hSC16.34 (antibody, V domains shown) VH: QVQLVQSGAEVKKPGASVKVSCKASGYTFTNYGMNWVRQAPGQRLEWMGWINTYTGDPTYADDFKGRVTITRDTSASTAYMELSSLRSEDTAVYYCARIGGNSPSDYWGQGTTVTVSS VL: DIQMTQSPSSLSASVGDRVTITCKASQSVSNDVAWYQQKPGKVPKLLIYYASNRYSGVPSRFSGSGSGTDFTLTISSLQPEDVATYFCQQDYSSPWTFGGGTKVEIK | –
0.5 | – | hSC16.56 (antibody, V domains shown) VH: QVQLVQSGAEVKKPGASVKVSCKASGYTFTNYGMNWVRQAPGQGLEWMGWINTYTGEPTYADDFKGRVTMTTDTSTSTAYMELRSLRSDDTAVYYCARIGDSSPSDYWGQGTLVTVSS VL: EIVMTQSPATLSVSPGERATLSCKASQSVSNDVVWYQQKPGQAPRLLIYYASNRYTGIPARFSGSGSGTEFTLTISSLQSEDFAVYYCQQDYTSPWTFGQGTKLEIKR | –
